Test results from paper PMC9324987, “Comparative Analysis of Catabolic and Anabolic Dehydroshikimate Dehydratases for 3,4-DHBA Production in Escherichia coli” (Microorganisms, 2022).

What was measured:
Qa-4 = target: T1, Qa-4 (Neurospora crassa, UniProt P07046); test: […],4-DHBA formation at […] nm, product inhibition; format: biochemical
T1 construct: full length, C-terminal His6 (pET22b), codon-optimised synthetic gene, made in E. coli BL21(DE3); primer-encoded N-terminus MPSKLAISS
T1 sequence (P07046 1-359): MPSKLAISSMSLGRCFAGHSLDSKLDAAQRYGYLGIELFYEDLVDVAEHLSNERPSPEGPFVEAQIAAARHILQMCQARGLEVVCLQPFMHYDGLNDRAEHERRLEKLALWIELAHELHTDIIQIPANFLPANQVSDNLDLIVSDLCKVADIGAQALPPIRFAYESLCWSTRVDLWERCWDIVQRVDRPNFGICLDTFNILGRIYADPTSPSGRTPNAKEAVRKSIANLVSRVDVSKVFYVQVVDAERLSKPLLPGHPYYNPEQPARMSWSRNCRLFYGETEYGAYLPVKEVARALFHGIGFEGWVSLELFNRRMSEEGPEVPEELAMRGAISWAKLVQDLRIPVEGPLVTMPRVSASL

QsuB = target: T2, QsuB (Corynebacterium glutamicum, UniProt Q8NT86); test: […],4-DHBA formation at […] nm, product inhibition; format: biochemical
T2 construct: gene Cgl0422
T2 sequence (Q8NT86 1-618): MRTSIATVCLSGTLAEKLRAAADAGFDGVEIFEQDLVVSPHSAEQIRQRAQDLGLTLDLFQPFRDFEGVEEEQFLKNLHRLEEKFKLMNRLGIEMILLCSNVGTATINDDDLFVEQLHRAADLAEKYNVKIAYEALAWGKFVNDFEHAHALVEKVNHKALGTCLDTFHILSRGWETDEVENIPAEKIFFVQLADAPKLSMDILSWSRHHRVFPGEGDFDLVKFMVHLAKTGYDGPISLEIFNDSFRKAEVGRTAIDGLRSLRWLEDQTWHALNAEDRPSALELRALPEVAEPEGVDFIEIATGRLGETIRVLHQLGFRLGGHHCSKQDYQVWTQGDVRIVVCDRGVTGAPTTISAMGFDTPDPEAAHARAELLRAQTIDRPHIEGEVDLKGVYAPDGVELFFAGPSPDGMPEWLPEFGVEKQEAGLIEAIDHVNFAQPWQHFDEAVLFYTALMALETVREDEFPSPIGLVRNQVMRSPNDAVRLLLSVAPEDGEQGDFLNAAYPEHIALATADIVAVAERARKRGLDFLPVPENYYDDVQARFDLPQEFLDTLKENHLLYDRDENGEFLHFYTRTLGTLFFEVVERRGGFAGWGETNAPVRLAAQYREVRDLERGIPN

AsbF = target: T3, AsbF (Bacillus thuringiensis, UniProt A0A1B1L4G3); test: […],4-DHBA formation at […] nm, product inhibition; format: biochemical; details: 1 mM DHS, 10 mM Mg2+, 0.1 M Tris/HCl pH 7.5, 20 °C, 150 nM enzyme
T3 construct: gene CAB88_09740

purified protein [1] = substrate: O=C(O)C1=CC(=O)[C@@H](O)[C@H](O)C1; test: purified protein; format: biochemical, Neurospora crassa; details: 10 mM Mg2+, 0.1 M Tris/HCl pH 7.5, 20 °C, 0.1-5 mM DHS
purified protein [2] = substrate: O=C(O)C1=CC(=O)[C@@H](O)[C@H](O)C1; test: purified protein; format: biochemical, Corynebacterium glutamicum; details: 10 mM metal salt (preferred metal, Co2+), 0.1 M Tris/HCl pH 7.5, 20 °C, 0.1-5 mM DHS

T3 sequence (A0A1B1L4G3 1-280): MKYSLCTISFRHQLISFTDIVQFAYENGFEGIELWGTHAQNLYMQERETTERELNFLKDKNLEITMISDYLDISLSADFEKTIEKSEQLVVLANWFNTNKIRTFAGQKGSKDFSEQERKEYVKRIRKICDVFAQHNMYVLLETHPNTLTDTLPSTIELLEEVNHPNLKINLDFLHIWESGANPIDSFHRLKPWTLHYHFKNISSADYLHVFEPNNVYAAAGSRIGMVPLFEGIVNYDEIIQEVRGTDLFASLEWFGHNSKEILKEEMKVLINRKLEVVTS

O=C(O)c1ccc(O)c(O)c1 [3,4-DHBA]
IC50 (Qa-4): ~640 µM
IC50 (QsuB): ~350 µM
IC50 (AsbF): ~80 µM

B1: Qa-4 (Neurospora crassa OR74A) (protein)
chain: MPSKLAISSMSLGRCFAGHSLDSKLDAAQRYGYLGIELFYEDLVDVAEHLSNERPSPEGPFVEAQIAAARHILQMCQARGLEVVCLQPFMHYDGLNDRAEHERRLEKLALWIELAHELHTDIIQIPANFLPANQVSDNLDLIVSDLCKVADIGAQALPPIRFAYESLCWSTRVDLWERCWDIVQRVDRPNFGICLDTFNILGRIYADPTSPSGRTPNAKEAVRKSIANLVSRVDVSKVFYVQVVDAERLSKPLLPGHPYYNPEQPARMSWSRNCRLFYGETEYGAYLPVKEVARALFHGIGFEGWVSLELFNRRMSEEGPEVPEELAMRGAISWAKLVQDLRIPVEGPLVTMPRVSASL
notes: full length, C-terminal His6 (pET22b), codon-optimised synthetic gene, made in E. coli BL21(DE3); primer-encoded N-terminus MPSKLAISS
Km (purified protein [1]): 598 ± 16 µM
kcat (purified protein [1]): 218.6 ± 1.1 s⁻¹
kcat/Km (purified protein [1]): 366000 ± 68800 M⁻¹ s⁻¹

B2: QsuB (Corynebacterium glutamicum ATCC 13032) (protein)
chain: MRTSIATVCLSGTLAEKLRAAADAGFDGVEIFEQDLVVSPHSAEQIRQRAQDLGLTLDLFQPFRDFEGVEEEQFLKNLHRLEEKFKLMNRLGIEMILLCSNVGTATINDDDLFVEQLHRAADLAEKYNVKIAYEALAWGKFVNDFEHAHALVEKVNHKALGTCLDTFHILSRGWETDEVENIPAEKIFFVQLADAPKLSMDILSWSRHHRVFPGEGDFDLVKFMVHLAKTGYDGPISLEIFNDSFRKAEVGRTAIDGLRSLRWLEDQTWHALNAEDRPSALELRALPEVAEPEGVDFIEIATGRLGETIRVLHQLGFRLGGHHCSKQDYQVWTQGDVRIVVCDRGVTGAPTTISAMGFDTPDPEAAHARAELLRAQTIDRPHIEGEVDLKGVYAPDGVELFFAGPSPDGMPEWLPEFGVEKQEAGLIEAIDHVNFAQPWQHFDEAVLFYTALMALETVREDEFPSPIGLVRNQVMRSPNDAVRLLLSVAPEDGEQGDFLNAAYPEHIALATADIVAVAERARKRGLDFLPVPENYYDDVQARFDLPQEFLDTLKENHLLYDRDENGEFLHFYTRTLGTLFFEVVERRGGFAGWGETNAPVRLAAQYREVRDLERGIPN
Km (purified protein [2]): 961 ± 77 µM
kcat (purified protein [2]): 60.8 ± 0.9 s⁻¹
kcat/Km (purified protein [2]): 63300 ± 11700 M⁻¹ s⁻¹
